In the supplement of paper PMC10567573:

B1: MNAT1 (parent)
chain: LEEALYEYQPLQIETYGPHVPELE
B2: FBXO39 (parent)
chain: PSRVHASEVESAVWYVKKFGRYLE

Variants of: B1
Assay: protein stability index of a GFP-peptide fusion (GPS, HEK-293T) (PSI 1-6); higher = more stable
Details: c terminus: a fixed tail appended
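Note: lentivirally expressed fusions sorted by FACS into six bins by GFP to DsRed ratio, PSI derived from sequencing read proportions per bin multiplied by bin number.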

Variant	protein stability index
LEEALYEYQPLQIETYGPHVPMLE [E22M]	2.35
LEEALYEYQPLQIETYGPHVPPLE [E22P]	2.28
LEEALYEYQPLQIETYGPHVPGLE [E22G]	2.43
LEEALYEYQPLQIETYGPHVPILE [E22I]	1.84
LEEALYEYQPLQIETYGPHVPSLE [E22S]	2.4
LEEALYEYQYLQIETYGPHVPELE [P10Y]	3.09
LEEALYEYQDLQIETYGPHVPELE [P10D]	4.33
LEEALYEYQFLQIETYGPHVPELE [P10F]	2.91
LEEALYEYQLLQIETYGPHVPELE [P10L]	3.32
LEEALYEYQGLQIETYGPHVPELE [P10G]	4.24
LEEALYEYQCLQIETYGPHVPELE [P10C]	3.27
LEEALYEYQKLQIETYGPHVPELE [P10K]	4.53
LEEALYEYQPLQIVTYGPHVPELE [E14V]	1.82
LEEALYEYQPLQIWTYGPHVPELE [E14W]	1.6
LEEALYEYQPLQIQTYGPHVPELE [E14Q]	2.19
LEEALYEYQPLQIGTYGPHVPELE [E14G]	3.31
LEEALYEYQPLQIITYGPHVPELE [E14I]	1.81
LEEALYEYQPLQISTYGPHVPELE [E14S]	2.25
LEEALYEYQPLQITTYGPHVPELE [E14T]	2.32
LEEALYEYQPLQIKTYGPHVPELE [E14K]	1.75
LEEALYEYQPLQIYTYGPHVPELE [E14Y]	1.87

Variant	protein stability index
LEEALYEYQPLQIETYGPHVPETE [L23T]	2.6
LEEALYEYQPLQIETYGPHVPENE [L23N]	3.34
LEEALYEYQPLQIETYGPHVPEVE [L23V]	2.81
LEEALYEYQPLQIETYGPHVPEHE [L23H]	3.29
LEEALYEYQPLQIETYGPHVPEAE [L23A]	3.56
LEEALYEYQPLQIETYGPHVPEQE [L23Q]	2.98
LEEALYEYQPLQIETYGPHVPERE [L23R]	3.99
LEEALYEYQPLQIETYGPHVPEEE [L23E]	4.12
LEEALVEYQPLQIETYGPHVPELE [Y6V]	3.33
LEEALIEYQPLQIETYGPHVPELE [Y6I]	2.58
LEEALGEYQPLQIETYGPHVPELE [Y6G]	3.43
LEEALDEYQPLQIETYGPHVPELE [Y6D]	4.36
LEEALAEYQPLQIETYGPHVPELE [Y6A]	2.3
LEEALSEYQPLQIETYGPHVPELE [Y6S]	2.41
LEEALNEYQPLQIETYGPHVPELE [Y6N]	3.7
LEEALYIYQPLQIETYGPHVPELE [E7I]	2.44
LEEALYGYQPLQIETYGPHVPELE [E7G]	3.53
LEEALYKYQPLQIETYGPHVPELE [E7K]	1.87
LEEALYMYQPLQIETYGPHVPELE [E7M]	2.19
LEEALYVYQPLQIETYGPHVPELE [E7V]	1.73
LEEALYQYQPLQIETYGPHVPELE [E7Q]	2.28

Variant	protein stability index
LEEALYPYQPLQIETYGPHVPELE [E7P]	2.71
LEEALYAYQPLQIETYGPHVPELE [E7A]	2.19
LEEALYWYQPLQIETYGPHVPELE [E7W]	2.1
LEEALYEYQPLQIEFYGPHVPELE [T15F]	1.75
LEEALYEYQPLQIEVYGPHVPELE [T15V]	1.7
LEEALYEYQPLQIEEYGPHVPELE [T15E]	4.43
LEEALYEYQPLQIEYYGPHVPELE [T15Y]	2.01
LEEALYEYQPLQIEGYGPHVPELE [T15G]	4.13
LEEALYEYQPLQIEQYGPHVPELE [T15Q]	4.09
LEEALYEYQPLQIESYGPHVPELE [T15S]	3.54
LEEALYEYQPLQIEDYGPHVPELE [T15D]	4.73
LEEALYEYQPLQIEAYGPHVPELE [T15A]	1.99
LEEALYEYQPLQIELYGPHVPELE [T15L]	1.82
LEEALYEYQPLQFETYGPHVPELE [I13F]	4.34
LEEALYEYQPLQHETYGPHVPELE [I13H]	5.15
LEEALYEYQPLQMETYGPHVPELE [I13M]	4.27
LEEALYEYQPLQPETYGPHVPELE [I13P]	5.08
LEEALYEYQPLQCETYGPHVPELE [I13C]	4.14
LEEALYEYQPLQEETYGPHVPELE [I13E]	5.29
LESALYEYQPLQIETYGPHVPELE [E3S]	3.63
LEIALYEYQPLQIETYGPHVPELE [E3I]	2.13

Variant	protein stability index
LECALYEYQPLQIETYGPHVPELE [E3C]	2.42
LEYALYEYQPLQIETYGPHVPELE [E3Y]	2.04
LEFALYEYQPLQIETYGPHVPELE [E3F]	3.39
LEHALYEYQPLQIETYGPHVPELE [E3H]	3.16
LEWALYEYQPLQIETYGPHVPELE [E3W]	1.45
LEPALYEYQPLQIETYGPHVPELE [E3P]	4.05
LEQALYEYQPLQIETYGPHVPELE [E3Q]	3
LEEALYEYQPLKIETYGPHVPELE [Q12K]	1.84
LEEALYEYQPLYIETYGPHVPELE [Q12Y]	2.01
LEEALYEYQPLIIETYGPHVPELE [Q12I]	2.5
LEEALYEYQPLHIETYGPHVPELE [Q12H]	2.5
LEEALYEYQPLRIETYGPHVPELE [Q12R]	2.27
LEEAEYEYQPLQIETYGPHVPELE [L5E]	4.58
LEEAQYEYQPLQIETYGPHVPELE [L5Q]	5.38
LEEAPYEYQPLQIETYGPHVPELE [L5P]	5.19
LEEAWYEYQPLQIETYGPHVPELE [L5W]	3.89
LEEAKYEYQPLQIETYGPHVPELE [L5K]	5.06
LEEAAYEYQPLQIETYGPHVPELE [L5A]	4.97
LEEATYEYQPLQIETYGPHVPELE [L5T]	4.9

Variants of: B2
Assay: as above
Details: c terminus: a fixed tail appended

Variant	protein stability index
PSRVHASEVESAVWYVKKFGRPLE [Y22P]	2.67
PSRVHASAVESAVWYVKKFGRYLE [E8A]	3.81
PSRVHASEVESAVWYVPKFGRYLE [K17P]	1.89
PSRVHASEVESAFWYVKKFGRYLE [V13F]	1.45
PSRVHASEVESPVWYVKKFGRYLE [A12P]	2.25
PSRVHASEVYSAVWYVKKFGRYLE [E10Y]	2
PSRVHASEVESAVWSVKKFGRYLE [Y15S]	2.4
PSRVHASEVESAVWYVKIFGRYLE [K18I]	2.93
FSRVHASEVESAVWYVKKFGRYLE [P1F]	1.66
PSWVHASEVESAVWYVKKFGRYLE [R3W]	2.4
PSRVHASEVESAVWYVKKFGIYLE [R21I]	2.19
PSRVHASEVESAVWYVKKFLRYLE [G20L]	1.75
